{"source": "the nanobody polyreactivity screen of Harvey et al. (2022)"}
{"assay": "yeast display, Sf9 membrane polyspecificity reagent, FACS + sequencing; frameworks hold sequencing errors", "outline": "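Polyreactivity labels are assigned by the sorting gate from which each nanobody was recovered. The gates were low and high (top ~1%), set on anti-HA fluorescence for expression and streptavidin fluorescence for reagent binding. Before sorting, galactose-induced (36–48 hours) yeast display cells were stained for 1 hour at 4 °C with 10% biotinylated, detergent-solubilized Sf9 membrane reagent.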"}
{"sequence": "QVQHVESGGGLVQAGGSLRLSCAASGFIFSNNAMGRYRQAPGKERELVAAITSSGGRTYYADSVKGRFTISRDNAKNTVYLQMNSLKPEDTAVYYCAAVWRTSVWTKYGYWGQGTQVTVSS", "polyreactivity (PSR sort gate)": "high polyreactivity"}
{"sequence": "QVQHVESGGGLVQAGGSLRLSCAASGFIFVRNTMGWYRQAPGKERELVATITRRGGSTSYADSVKGRFTISRDNAKNTVYLQMNSLKPEDTAVYFCNARSVYGSKQEEYWGQGTQVTVSS", "polyreactivity (PSR sort gate)": "high polyreactivity"}
{"sequence": "QVQHVESGGGLVQAGGSLRLSCAASGFIIQGNAMGWYRQAPGKERELVAAISSSVSTYYADSVKGRFTISRDNAKNTVYLQMNSLKPEDTAVYYCNAGFPLSLWLGDYWGQGTQVTVSS", "polyreactivity (PSR sort gate)": "low polyreactivity"}
{"sequence": "QVQHVESGGGLVQAGGSLRLSCAASGFTFGSYAMGWYRQAPGKERELVARISSDGSTNYADSVKGRFTISRDNPKNTVYLQMNSLKPEDTAVYYCAADRVVEYADYYYWGQGTQVTVSS", "polyreactivity (PSR sort gate)": "low polyreactivity"}
{"sequence": "QVQHVESGGGLVQAGGSLRLSCAASGFTFNLYAMGWYRQAPGKERELVAAINWSGGTYYADSVKGRFTISRDNAKNTVYLQMNSLKPEYTAVYYCAADFPYTPWSYHHHVWSPDFDYWGQGTQVTVSS", "polyreactivity (PSR sort gate)": "low polyreactivity"}
{"sequence": "QVQHVESGGGLVQAGGSLRLSCAASGFTFQSYPMGWYRQAPGKERELVAAITRRGTRTYYADSVKGRFTISRDNAKNTVYLQLNSLKPEDTAVYYCAARSPKLEFDYWGQGTQVTVSS", "polyreactivity (PSR sort gate)": "high polyreactivity"}
{"sequence": "QVQHVESGGGLVQAGGSLRLSCAASGFTFWRYAMGWYRQEPGKERELVAGISSGGSTNYADSVKGRFTISRDNAKNTVYLQMNSLKPEDTAVYYCAADNSVGSYDYWGQGSQVTVSS", "polyreactivity (PSR sort gate)": "low polyreactivity"}
{"sequence": "QVQHVESGGGLVQAGGSLRLSCAASGFTSIMYAMGWYRQAPGKERDLVASISISDGSTYYADSVKGRFTISRDNAKNTVYLQMNILKPEDTAVYYCAADVYVWYTYSYDYWGQGTKVTVSS", "polyreactivity (PSR sort gate)": "low polyreactivity"}
{"sequence": "QVQHVESGGGLVQAGGSLRLSCAASGIIFFKNAMGWYRQAPGKERELVAAISSTDTRTYYADSVKGRFTISRDNAKNTVYLQMNSLKPEDTAVYYCAASRRGGGLDYWGQGTQVTVSS", "polyreactivity (PSR sort gate)": "high polyreactivity"}
{"sequence": "QVQHVESGGGLVQAGGSLRLSCAASGIIFKLYAMGWYRQAPGKEREFVATITKTGGRTYYADSVKGRFTISRDNAKNTVYLQMNSLKPEDTAVYYCAARRVNGKMYYWGQGTQVTVSS", "polyreactivity (PSR sort gate)": "high polyreactivity"}
{"sequence": "QVQHVESGGGLVQAGGSLRLSCAASGIIFYSYTMGWYRQAPGKDRELVAAISRNGGGTYYADSVKGRFTSSRDIAKNTGYLQMNSLKPEHTAVYYCAAGWRFGRYSGDYWGQGTQVTVSS", "polyreactivity (PSR sort gate)": "high polyreactivity"}
{"sequence": "QVQHVESGGGLVQAGGSLRLSCAASGIILGSYAMGWYRQAPGKEMELVAAIRWSRGRTYYADSVKGRFTISRDNAKNTVYLQMNSLKPEDSAVYYCAAANSRRGYDYWGQGTQVTVSS", "polyreactivity (PSR sort gate)": "high polyreactivity"}
{"sequence": "QVQHVESGGGLVQAGGSLRLSCAASGITFGRNTMGWYRQAPGKERELVAAIDSGGNTYADSVKGRFTISRDNAKITVYLQMIRQKPEDTAVDSCAVDGGEFSSYGYWGQGTQVTVSS", "polyreactivity (PSR sort gate)": "low polyreactivity"}
{"sequence": "QVQHVESGGGLVQAGGSLRLSCAASGITFKPNAMGWSRHAPGKERELVAAIDSGGSTNYAYSVKGRFTISLDNAKNTVYLQMNSLKPEDTAVYYCAAPYQDRDLQVSYSTYEGGYWGQGTQVTVSS", "polyreactivity (PSR sort gate)": "low polyreactivity"}
{"sequence": "QVQHVESGGGLVQAGGSLRLSCAASGITFVLNSMGWSRPAPGKERELVAAIDTSGADTYYADSVKGRFTISRDNAKNTVYLQMNSLKPEDTAVYYCAAETITDDSYEYDYWGQGTQVTVSS", "polyreactivity (PSR sort gate)": "low polyreactivity"}
{"sequence": "QVQHVESGGGLVQAGGSLRLSCAASGITFVPNAMGWYRQAHGKERELVAAITSGDSTNYADSVKGRFTISRDNAKNTVYLQMNSLKPEDTAVYYCAADSWAQRPNQGRVSLHYYWGQGTLVTVSS", "polyreactivity (PSR sort gate)": "low polyreactivity"}
{"sequence": "QVQHVESGGGLVQAGGSLRLSCAASGLIFPRYAMGLYRQAPGKERELVAAINWRGGITYYADSVKGRFTISRDNAKNTVYLQMNSLKPEDTAVYYCAAAVKHVAYHYNYWGQGTQVTVSS", "polyreactivity (PSR sort gate)": "high polyreactivity"}
{"sequence": "QVQHVESGGGLVQAGGSLRLSCAASGLIFVRYAMGWYRQAPGKERELVATITWSGGTTYADSVKGRFTISRDNAKNTVYLQMNSLKPEDTAVYYCAVEWPAWTDSDYPVGGHAFGYWGQGTQVTVSS", "polyreactivity (PSR sort gate)": "low polyreactivity"}
{"sequence": "QVQHVESGGGLVQAGGSLRLSCAASGLNLYSNAMGCYRQAPGNERELVAAISWIGASTYYADSVKGRFTISRDNAKNTVYLQMNSLKQEDTAVYYCATARYRGYPTYSYARDYCGQGTQVTVSS", "polyreactivity (PSR sort gate)": "high polyreactivity"}
{"sequence": "QVQHVESGGGLVQAGGSLRLSCAASGNIFVAYAMGGYRQAPGKERELVAAITSGGRTYADSVKGRFTISRDNAKNTVYLQMNSLKPEDTAVYYCNADPYYVYLGYYDRYYSGYGYWGQGTQVTVSS", "polyreactivity (PSR sort gate)": "low polyreactivity"}
{"sequence": "QVQHVESGGGLVQAGGSLRLSCAASGNSFRYYTMGWYRQAPGKEREFVAAISWSGGRTRYADSVKGRFTISRDNAMITVYLQMNSLKPEDTAVYYCAAYTPSYGGRDYWGQGTQVTVSS", "polyreactivity (PSR sort gate)": "low polyreactivity"}
{"sequence": "QVQHVESGGGLVQAGGSLRLSCAASGPTYKRYAMGWYRQAPGKERELVAAIRQRGGSTYYADSVKGRFTISRDNAKNTVYLQMISLKPEDTAVYYWAKRYVSNSQYEYWGQGTQVTVSS", "polyreactivity (PSR sort gate)": "high polyreactivity"}
{"sequence": "QVQHVESGGGLVQAGGSLRLSCAASGRIFGGNAMGWYRQAPGKERELVAAISIGGGSTNYADSVKGRFTISRDNAKNTFYLQMNSLKPEDTAVYYCAARTRYTSVGKLYSWGQGTQVTVSS", "polyreactivity (PSR sort gate)": "high polyreactivity"}
{"sequence": "QVQHVESGGGLVQAGGSLRLSCAASGRIFHWYAMGWYRQAPGKERELVAAIRWTGGSTYYADSVKGRFTISRDNAKNTVYLEMNSLKPEDTAVYYCAAKGYTGIFYEMDYWGQGTQVTVSS", "polyreactivity (PSR sort gate)": "low polyreactivity"}
{"sequence": "QVQHVESGGGLVQAGGSLRLSCAASGRIFRGYAMGWYRQAPGKERELVAVISYSGTRTYYADSVKGRFTISRDNAKNTVYLQMNSLKPEDTAVYYCNARANGFKDGYWGQGTQVTVSS", "polyreactivity (PSR sort gate)": "high polyreactivity"}
{"sequence": "QVQHVESGGGLVQAGGSLRLSCAASGRIFVPYTMGWYRQAPGKERELVAAISRSGGSTYYADSVKGRFTISRDNAKNPVYLQMNSLKPEDTAVYYCAARATNVYSKMDYWGQGTQVTVSS", "polyreactivity (PSR sort gate)": "high polyreactivity"}
{"sequence": "QVQHVESGGGLVQAGGSLRLSCAASGRIFYRNAMGWYRQAPGKERELVASITSAGRTYYADSVKGRFTISRDNAKNTVYLQMNSLKPEDTAVYYCAVRVAVLLNLYGYWGQGTQVTVSS", "polyreactivity (PSR sort gate)": "low polyreactivity"}
{"sequence": "QVQHVESGGGLVQAGGSLRLSCAASGRTFEVFAMGWYRQAPRKERELVATITYSGGITYYADSVKGRFTISRDKAKNTVYLQMNSLKPEDTAVYYPIGVGGDYDYCGQGTQVTVSS", "polyreactivity (PSR sort gate)": "low polyreactivity"}
{"sequence": "QVQHVESGGGLVQAGGSLRLSCAASGRTFKYYAMGWYRQAPGKERELVAAISSRGGSTYYADSVKGRFTISRDNAKNTVYLQMNSLKPEDTAVYYCAKGTYLSTSTVANDYWGQGTQVTVSS", "polyreactivity (PSR sort gate)": "high polyreactivity"}
{"sequence": "QVQHVESGGGLVQAGGSLRLSCAASGRTFQLYDMGWYRQPHGKDRELVAGITITGGSTYYADSVKGRFTISRDIAKNTVYIQMISLKPEDTAVYYCAARKARPPFPHPFDYYWGQGTQVTVSS", "polyreactivity (PSR sort gate)": "low polyreactivity"}
{"sequence": "QVQHVESGGGLVQAGGSLRLSCAASGRTFSRYAMGWYRQAPGKERELVAAISSRGGSTYYADSVKGRFTISRDYAKNTVYLQMNSLKPEDTAVYYCNADSKVDQYGYDYWGQGTQVTVSS", "polyreactivity (PSR sort gate)": "high polyreactivity"}
{"sequence": "QVQHVESGGGLVQAGGSLRLSCAASGRTFWTNALGWYRQAPGKEREFVGAISWRGASTFYADSVKGRFTISRDHAKNTVYLQMTSLKPEDTAVYDCAAQSRTRSFYGKFDSWGQGTQVTVSS", "polyreactivity (PSR sort gate)": "low polyreactivity"}
{"sequence": "QVQHVESGGGLVQAGGSLRLSCAASGRTFYRYAMGWSRQAPGKERELVASINRGGSTNYADSVKGRFTISRDNAKNTVYLQMNSLKPEDTAVYYCNADGYQAASRVYRRPKRYYSWGQGTQVTVSS", "polyreactivity (PSR sort gate)": "low polyreactivity"}
{"sequence": "QVQHVESGGGLVQAGGSLRLSCAASGRTSKKYVMGWYRQAPGKERELVATLNWSGGSTYYADSVKGRFTISRDNAKNTVYLQMNSLKPEDTAVYYCAARSEFYWGWEYITYDYWGQGTQVTVSS", "polyreactivity (PSR sort gate)": "low polyreactivity"}
{"sequence": "QVQHVESGGGLVQAGGSLRLSCAASGRTSNIYAMGWYRQAPGKERELVAAIRTGGSTNYADSVKGRFTISRDNAKNTVYLQMNSLKPEDTAVYYCAATSRRSRPAEEYWGQGTQVTVSS", "polyreactivity (PSR sort gate)": "high polyreactivity"}
{"sequence": "QVQHVESGGGLVQAGGSLRLSCAASGRTSYGNTMGWYRQAPGKERELVATISGGGSTNYADSVKGRFTISRDNAKNTVYLQMNSLKPDDTAVYYCAARRYPFPGYRYYYWGQGTQVTVSS", "polyreactivity (PSR sort gate)": "high polyreactivity"}
{"sequence": "QVQHVESGGGLVQAGGSLRLSCAASGRTYRYNAMGWYRQAPGKETELVAAITGGGSTNYADSVKGRFTISRDNAKYTVYLQMNSLKPEDTAVYYCATGGFKYWWLYPYDYWGQGTQVTVSS", "polyreactivity (PSR sort gate)": "low polyreactivity"}
{"sequence": "QVQHVESGGGLVQAGGSLRLSCAASGSIFRRYTMGWYRQAPGKERELVAAISRVGNTNYADSVKGRFTISRDNAKNTVYLQMNSLKPEDTAVYYCAARAIGYRYTPGLNYWGQGTQVTVSS", "polyreactivity (PSR sort gate)": "high polyreactivity"}
{"sequence": "QVQHVESGGGLVQAGGSLRLSCAASGSIFVFYAMGWYRQAHGKEREFVASITSSGGSTYYADSVKGRFTISRDNAKNTVYLQMNSLKPEDTAVYYCAARKYRNPYYYRYYYWGQGTQVTVSS", "polyreactivity (PSR sort gate)": "high polyreactivity"}
{"sequence": "QVQHVESGGGLVQAGGSLRLSCAASGSIIRGNCMGWYRQAPGKERELVAAISRSGGRTYYADSVKGRFTFSRDNAKNTVYLQMNSLKPEDTAVYYFAKDRSGSYYNFPEYDYWGQGTQVTVSS", "polyreactivity (PSR sort gate)": "high polyreactivity"}
{"sequence": "QVQHVESGGGLVQAGGSLRLSCAASGSNVVSNAMGWYRHATGKEREFVATISSGGGTTYADSVKGRFTISRDNAKITVYLQMNSLKAEDTAVYYCAAGHFVGREWVKFDYWGQGTQVTVSS", "polyreactivity (PSR sort gate)": "low polyreactivity"}
{"sequence": "QVQHVESGGGLVQAGGSLRLSCAASGSTFLVYAMGWYRQAPGKERELVAAISGAGSTTYADSVKGRFTISRDNAKNTVYLQMNSMKPEDTAVSYCNARTVAIWSERYYWGQGTQVTVSS", "polyreactivity (PSR sort gate)": "low polyreactivity"}
{"sequence": "QVQHVESGGGLVQAGGSLRLSCAASGSTFPGYAMGWYRQAPGKERELVAAISKRGGSTRYADSVKGRFTISRDNAINTVYLQMNSLKPEDTAVYYCAASYSYSGSGGGYWGQGTQVTVSS", "polyreactivity (PSR sort gate)": "high polyreactivity"}
